Results taken from the DeepSol protein solubility set.

Test: soluble on expression in E. coli; label from the status in PepcDB or PDB records

Row | Sequence | soluble on expression in E. coli
1 | MGSDKIHHHHHHMAKIGRNEPCPCGSGKKYKRCCMSGVGKQQADFVDSIEQMLAMNPDLSMDELNIIAEHQSNKINTTPHKDFCGLAPGQVNNWLYAPFPELEGITINTPSDLSTSPVMRYLKLMLETALANGGQIKATAKGNLPAALVKEASAFLPEFAVAPFERAISISEFAGANEDKFNALHYCRVLAKIAGIFKLKSNKFHVSAWAKHQYQRAGLESFFPIMLETAVYKYNWGYFDLWENEIPLQHFWLFMLWRLQHHKSHERLVDEMIQAFPDLLNELYEEEYMSDRDKLAVLIESRFIHRFLQFFGFVMVDPRRVIDGKRVAAQVTCLRSMHETFNFRIE | not soluble
2 | GMRNPSEDHMMRTPYQIVADHYAASDRHDPAAMMADIAPAIEWTEMAGFPCAGTYRSADEIVRNVFRRLGEEWDGYTFKLDALHDAGDTVIGVGRYSGTYRRTGKSFECRVAHVWRVDAGKIVHFEQFTDTLLVAQAMQP | soluble
3 | MAHHHHHHMAPVIPKSSNEGKDYSVASGSVDTPVLDQLVGYYVNIQSRKMYYKDFLRIEHQAVRWAFADIRKNSEALAHGLLQTGLRPGQRVLAIQPCNCETFVLQLACAKIGALLAVVPHHNISADKLRFYLNEFQPHHLIAREWIVVPEVKQGVLVERNMHFWDMIYNVIPELGLSYPGQRFQWVHSQEFFFLKKVVITDHNMNLLGVTPMRKMLVWGPFSYYEQRLRRLSALLHPDDPILALEDPHPALEDKLHITYSHRNCINAGFLFGNLMGLKAESRFGVMPNHHVDPVGAIVAPYAALTTGAVLVHIHSDMFTDDHAINGIEKLCVEEVVGMLGKKSDFDLLLRHAGNFDADQYEHLKWVVLFEDASEPTVGDEYLQKLAKELGLEDVFVFRGPLESAYMVMWRSLKRARWEMVPHVEAKVVGDRGTADARILAANTRGNLKLKGPHISAGYYNNAGLLTELVDERGFCSTSREAVMDERGQLTLHGTQLY | not soluble
4 | MGSDKIHHHHHHMETIHFTKVHGSQNDFFLVDEEENHITEWSDEKRANFAIKLCDRKHSLGGADGILYVTKSSEVGPIGQMRVVNSDGSIASMCGNGLRTVARYLLEKHALTDAKVETMKAILDVKKATSLGFDIPTYQVEISPVKFAAETLPMHVGVEKLFNQVIPELDAELAFSAVSVPNPHLITFVDQAVLDSNKQEKLASYLNSENPYFPDGVNVSFVKRLSDDAIYVRTFERGVGFTNACGTAMSACSLIKKMLDNNILETPLNVYNDGGRVQVTAKKDAAGEISLQLIGNATFVSKGSVRYENDIVTELTNEATAEQAQYQALVKEVKEFLKTTE | not soluble
5 | YTIKEAERGVVTRFGKFSHLVEPGLNWKPTFIDEVKPVNVEAVRELAASGVMLTSDENVVRVEMNVQYRVTNPEKYLYSVTSPDDSLRQATDSALRGVIGKYTMDRILTEGRTVIRSDTQRELEETIRPYDMGITLLDVNFQAARPPEEVKAAFDDAIAARENEQQYIREAEAYSNEVQPRANGQAQRILEEARAYKAQTILEAQGEVARFAKLLPEYKAAPEITRERLYIETMEKVLGNTRKVLVNDKGGNLMVLPLDQMLKGGNAPAAKSDNGASNLLRLPPASSSTTSGASNTSSTSQGDIMDQRRANAQRNDYQRQGE | not soluble
6 | MPPEMEGFLYLKSDGRKSWKKHYFVLRPSGLPPEMEGFLYLKSDGRKSWKKHYFVLRPSGLMYHDRRRTGFRQYETYMKQKQSADWQLDELLEELEALETQLNSSNGGDQLLLGVSGIPASSSRENVKSISTLPPPPPALSYHQTPQQPQLLHHHNNHLGYQNGIHQITSINSAASSCSSPDGDSAFGDSSSTESSNNRCRNSAFSSNDSCRDSLNTPSPTQVSPRNGELNAEEAKAQKIRQALEKMKEAKVTKIFVKFFVEDGEALQLLIDERWTVADTLKQLAEKNHIALMEDHCIVEEYPELYIKRVYEDHEKVVENIQMWVQDSPNKLYFMRRPDKYAFISRPELYLLTPKTSDHMEIPSGDQWTIDVKQKFVSEYFHREPVVYYAPKSKKPTTKDLTCLMNLHSNQVYTGIGWEKKYKSPTPWCISIKLTALQMKRSQFIKYICAEDEMTFKKWLVALRIAKNGAELLENYERACQIRRETLGPASSMSAASSSTAISEVPHSLSHHQRTPSVASSIQLSSHMMNNPTHPLSVNVRNQSPASFSVNSCQQSHPSRTSAKLEIQYDEQPTGTIKRAPLDVLRRVSRASTSSPTIPQEESDSDEEFPAPPPVASVMRMPPPVTPPKPCTPLTSKKAPPPPPKRSDTTKLQSASPMAPAKNDLEAALARRREKMATMEC | not soluble
7 | MKTLLPTSTAGSLPKPSWLAQPEKLWSPWKLQDEELIEGKRDALRLSLNDQQQAGIDIVSDGEQTRQHFVTTFIEHLSGVDFEKRETVRIRNRYDASVPTVVGAVSREKPVFVEDAKFLRQQTRQPIKWALPGPMTMIDTLYDSHYKSREKLAWEFAKILNQEARELEAAGVDIIQFDEPAFNVFFDEVNDWGVATLEKAIEGLKCETAVHICYGYGIKANTDWKKTLGSEWRQYEEAFPKLQKSNIDLISLECHNSRVPMDLIELIRGKKVMVGAIDVATSAIETPEEVADTLRKALRFVDADKLYPCTNCGMAPLSRQVARSKLNALGAGAEIIRRELSVAAALEHHHHHH | not soluble
8 | MAHHHHHHVGTGSNDDDDKAGLVEGQNYTVLANPIPQQQAGKVEVLEFFGYFCPHCAHLEPVLSKHAKSFKDDMYLRTEHVVWQKEMLTLARLAAAVDMAAADSKDVANSHIFDAMVNQKIKLQNPEVLKKWLGEQTAFDGKKVLAAYESPESQARADKMQELTETFQIDGTPTVIVGGKYKVEFADWESGMNTIDLLADKVREEQKAAQ | soluble
9 | MGSEHAFQGPTSFHVIQTSSFTNSTWAQTQGSGWLDDLQIHGWDSDSGTAIFLKPWSKGNFSDKEVAELEEIFRVYIFGFAREVQDFAGDFQMKYPFEIQGIAGCELHSGGAIVSFLRGALGGLDFLSVKNASCVPSPEGGSRAQKFCALIIQYQGIMETVRILLYETCPRYLLGVLNAGKADLQRQVKPEAWLSSGPSPGPGRLQLVCHVSGFYPKPVWVMWMRGEQEQQGTQLGDILPNANWTWYLRATLDVADGEAAGLSCRVKHSSLEGQDIILYWGPGSGGGLNDIFEAQKIEWH | soluble
10 | MGHHHHHHSHGSSAEIAATLGLPVVLVVDVRGMSQSVGAVVRGFATADPHVRIAGVILNKVGTDRHAEVCREAVEAVGVRVLGAIP | not soluble
11 | MLCVRRRCISAPMTDTTILPRPEVSGDFLVAALYHFARLPRFESLREQLFELCQKNGVKGTLLLAAEGINGTIAGPDAGVQAVLSFLRAQPEFAALEHKESRASHMPFVRLKVKLKKEIVTMGVPDIDPNRIVGTYVDPRDWNALISDPDTIVIDTRNDYETAIGVFKGAVDPQTKTFREFPDWVKNNPGLHNKPKIAMYCTGGIRCEKATAFMKEQGFDEVYHLKGGILKYLEEVPEEESLWEGACFVFDERVSVVHGLAEGDHQLCHACRNPITPDVRLSPKFEEGVSCPSCYDERSEDDRQRFRDRQQQIELAKTRGERHLGRLEHHHHHH | soluble
12 | MGSDKIHHHHHHLKEAILSPRFYTTDFKAIDRLEIDRNGLRDEFDWIRDEFAYDYNRTHFRRTDEFLQDFDDMPERDSFIDFLERSCTAEFSGCLLYAEMVKHLHDPTLRAIFKYMSRDEGRHAGFLNRTMADLNVALDLTVLQKRKKYTYFQPKFIFYSVYLSEKIGYSRYITIYRHLERNPQYCIHPIFKWFEQWCNDEYRHGEFFALLMRSQPEMLEGVNRRWIRFFLLAVYATMYLNDARRSNFYAALGLDWRDYDQTVIRLCNDIATQVYPETMNLDDPRFFAYMDKLVEYDRALRALESRKDPIAMAHSTRLKAAIALRLLAIYRLPTRKTTEAIRWKGLPGFPNYPGPNRPQRVVAAD | not soluble
13 | MAHHHHHHMNKNYPGRITSAPLAQQARGLSLRPGAPASFLDRAQPGGAGTGIGAQQSHHNNNLPRAPRAKPPTQLQTPAPAPPLPKEEAEEERSGAAEVAPSEVSYPEDHIYDVEDFIKLRKCQAPVPSEVMEYARAMWKEMPENMDDMENNSLRDNLFREQNASTMSKVMTDRKINNEVLGILGKVTASNLEKMKKELTDLPIRQSTKEEIDEV | soluble
14 | WKRGKISTQLDDDEFRAGMRKAQVIDVREKKEFDAGHILGARNIPYSQMKNRTQELRSDLPVYLYDQGRTFSGRAAMLLSKKGFTQLYILKNGYQRWTGKTKKTKY | soluble
15 | PSLSKEAALVHEALVARGLETPLRPPVHEMDNETRKSLIAGHMTEIMQLLNLDLADDSLMETPHRIAKMYVDEIFSGLDYANFPKITLIENKMKVDEMVTVRDITLTSTSEHHFVTIDGKATVAYIPKDSVIGLSKINRIVQFFAQRPQVQERLTQQILIALQTLLGTNNVAVSIDAVHYCVKARGIRDATSATTTTSLGGLFKSSQNTRHEFLRAVRHHN | soluble
16 | MKELVEIAVPENLVGAILGKGGKTLVEYQELTGARIQISKKGEFLPGTRNRRVTITGSPAATQAAQYLISQRVTYEQGVRASNPQKV | soluble
17 | MAHHHHHHMTTLYDELYLLFDEYIVRNCKQPNTYESLFCKKEFVQFAKLHGTSVVVTSPKKEIKNKDEIIDELIYAFKLFAKYTSMCDFFSKNEEVDDINTIYLKFLLIPYILGVLCYETISMEIRSDRLKEAKLYFGEFINVVNVYKIAPVEDYLLDEGGEVNQAMNRRNIKVKRAKDEKKLQDFYDDMIKMNVKKGSSQNYNHLCFADHMEEEQIREIYLSLIKCKCLQTLNMMDLIDTEIEVLEMRNRQQVQDKQHQNGKPTQGTKDTHDGQPPHQNKHPKDGIKKPWLFTIKKNMPLADMTQMRNYYRDLVFTPAHNLPTISLEECAKIEMEYALKGEGMAPRSEEERRGNPKSGTIKGAAQNGTDDEEDYEKSSKEESEKELMDREWDDWKDMHQKGIGNKNRNVA | not soluble
18 | MGSDKIHHHHHHAACQGKPLPNTAMHSDAPTEWSFNFFTPKALPAVVTFAAILDVDGNDYRFNTLNSTPDLPGVIGEWNDKDRAPVGYWNHVKRPPRHIIFCWDSIIDKKVYETHLTIPKSVLEQMLMPSKYKDYRGRIAWYNRMQIGLAPEGKVAVWLQGSGSESNYRVTPSVLKTVSGNKLDICKDITRSDFSYGYDKDIIDFIKGKHYPYGNW | not soluble
19 | MAGDRKRGFIRPDEDYALIEPQRWGLPDYGDSKEKKAKQTAFNYDPSWVPNFDEPEEEQALELTEEQIELIKQGAYQEGLYQGQEAGFKQGYDKGKEEGLQAGHAEGLELGKAEGVSAGQEFIQQQVEVFMNLANQFAQPLELMNAQVEKQLVDMVLCLVKEVVHVEVQTNPQIILDTVKQSVEALPISGHPITLHLNPEDVAIIRSAYGEEDLDCRNWTLVSEPSLNRGDVQIEAGESSINYRMEERIKSVLHSFCGANRHQEGE | not soluble
20 | MGSDKIHHHHHHMKVLLIIPAYNEEENILRTIASIETFKQEVTHFQHELDYVVINDGSTDGTKQILEANQINAIHLVLNLGIGGAVQTGYKYALENEYDVAVQFDGDGQHDINSLPILLEPLAEGKCDFSIGSRFIPGNEASFQSTKMRRFGIRLLSFCIRMASGKTIYDVTSGYRAGNRKVIAFFAKRYPTNYPEPESIVHLIKKRFVIVERPVNMMERLGGVSSIRALASVKYMLEVGSAILIAAFMKEGD | not soluble
21 | RSVAYDLIFGNKNTTKYYAQFVKEHKTHLYEQIKQINNDEFRFVEKTKRHNLG | not soluble
